Where “and” joins values, the source holds several entries; their conditions need not be identical. Equal entries are not always repeated.
Each binder was assayed against canine FcRn (FcRn large subunit with canine beta-2-microglobulin) (canine) (assay: SPR pH 5.5, SASA-Fc captured on BSA, FcRn 400 nM).

Binder	Kd	WT KD Avg/Variant KD	kon	koff
canine IgGB Fc (CH2-CH3) L252A with N-terminal SASA tag (Fc fusion, part only; not given: SASA tag, not shown: another chain or arm of the molecule; small tags and cut ends) Fc: APEMLGGPSVFIFPPKPKDTLAIARTPEVTCVVVDLDPEDPEVQISWFVDGKQMQTAKTQPREEQFNGTYRVVSVLPIGHQDWLKGKQFTCKVNNKALPSPIERTISKARGQAHQPSVYVLPPSREELSKNTVSLTCLIKDFFPPDIDVEWQSNGQQEPESKYRTTPPQLDEDGSYFLYSKLSVDKSRWQRGDTFICAVMHEALHNHYTQESLSHSPGK	292 nM and 240 nM	1.94 and 2.36	–	–
canine IgGB Fc (CH2-CH3) A254S with N-terminal SASA tag (Fc fusion, part only; not given: SASA tag, not shown: another chain or arm of the molecule; small tags and cut ends) Fc: APEMLGGPSVFIFPPKPKDTLLISRTPEVTCVVVDLDPEDPEVQISWFVDGKQMQTAKTQPREEQFNGTYRVVSVLPIGHQDWLKGKQFTCKVNNKALPSPIERTISKARGQAHQPSVYVLPPSREELSKNTVSLTCLIKDFFPPDIDVEWQSNGQQEPESKYRTTPPQLDEDGSYFLYSKLSVDKSRWQRGDTFICAVMHEALHNHYTQESLSHSPGK	340 nM and 317 nM	1.66 and 1.78	–	–
canine IgGB Fc (CH2-CH3) H433A with N-terminal SASA tag (Fc fusion, part only; not given: SASA tag, not shown: another chain or arm of the molecule; small tags and cut ends) Fc: APEMLGGPSVFIFPPKPKDTLLIARTPEVTCVVVDLDPEDPEVQISWFVDGKQMQTAKTQPREEQFNGTYRVVSVLPIGHQDWLKGKQFTCKVNNKALPSPIERTISKARGQAHQPSVYVLPPSREELSKNTVSLTCLIKDFFPPDIDVEWQSNGQQEPESKYRTTPPQLDEDGSYFLYSKLSVDKSRWQRGDTFICAVMHEALANHYTQESLSHSPGK	266 nM and 359 nM	2.13 and 1.58	–	0.229 s⁻¹ and 0.0997 s⁻¹

Other lines, results leading:

Kd	WT KD Avg/Variant KD	kon	koff	Binder
723 nM and 1670 nM	0.78 and 0.34	234000 M⁻¹ s⁻¹ and 318000 M⁻¹ s⁻¹	–	canine IgGB Fc (CH2-CH3) M428A with N-terminal SASA tag (Fc fusion, part only; not given: SASA tag, not shown: another chain or arm of the molecule; small tags and cut ends) Fc: APEMLGGPSVFIFPPKPKDTLLIARTPEVTCVVVDLDPEDPEVQISWFVDGKQMQTAKTQPREEQFNGTYRVVSVLPIGHQDWLKGKQFTCKVNNKALPSPIERTISKARGQAHQPSVYVLPPSREELSKNTVSLTCLIKDFFPPDIDVEWQSNGQQEPESKYRTTPPQLDEDGSYFLYSKLSVDKSRWQRGDTFICAVAHEALHNHYTQESLSHSPGK
393 nM and 876 nM	1.44 and 0.65	–	0.407 s⁻¹ and 0.213 s⁻¹	canine IgGB Fc (CH2-CH3) Y436A with N-terminal SASA tag (Fc fusion, part only; not given: SASA tag, not shown: another chain or arm of the molecule; small tags and cut ends) Fc: APEMLGGPSVFIFPPKPKDTLLIARTPEVTCVVVDLDPEDPEVQISWFVDGKQMQTAKTQPREEQFNGTYRVVSVLPIGHQDWLKGKQFTCKVNNKALPSPIERTISKARGQAHQPSVYVLPPSREELSKNTVSLTCLIKDFFPPDIDVEWQSNGQQEPESKYRTTPPQLDEDGSYFLYSKLSVDKSRWQRGDTFICAVMHEALHNHATQESLSHSPGK

What follows are binders tested against canine FcRn (FcRn large subunit with canine beta-2-microglobulin) (canine) (assay: SPR pH 6.0, IgG coupled to CM5, FcRn 50-800 nM).

Kd	koff	kon	Binder
5970 nM	0.187 s⁻¹	31400 M⁻¹ s⁻¹	canine IgGA antibody with wild-type IgGA Fc and the variable domain of Gearing et al. 2013 (antibody, part only; not given: variable domains and light chain, not shown: another chain or arm of the molecule; small tags and cut ends) Fc: VPEPLGGPSVLIFPPKPKDILRITRTPEVTCVVLDLGREDPEVQISWFVDGKEVHTAKTQSREQQFNGTYRVVSVLPIEHQDWLTGKEFKCRVNHIDLPSPIERTISKARGRAHKPSVYVLPPSPKELSSSDTVSITCLIKDFYPPDIDVEWQSNGQQEPERKHRMTPPQLDEDGSYFLYSKLSVDKSRWQQGDPFTCAVMHETLQNHYTDLSLSHSPGK
767 nM	0.0375 s⁻¹	48900 M⁻¹ s⁻¹	canine IgGA antibody, Fc variant A426Y, variable domain of Gearing et al. 2013 (antibody, part only; not given: Variable domains, not shown: another chain or arm of the molecule; small tags and cut ends) Fc: VPEPLGGPSVLIFPPKPKDILRITRTPEVTCVVLDLGREDPEVQISWFVDGKEVHTAKTQSREQQFNGTYRVVSVLPIEHQDWLTGKEFKCRVNHIDLPSPIERTISKARGRAHKPSVYVLPPSPKELSSSDTVSITCLIKDFYPPDIDVEWQSNGQQEPERKHRMTPPQLDEDGSYFLYSKLSVDKSRWQQGDPFTCYVMHETLQNHYTDLSLSHSPGK
1430 nM	0.0591 s⁻¹	41400 M⁻¹ s⁻¹	canine IgGA antibody, Fc variant A426H, variable domain of Gearing et al. 2013 (antibody, part only; not given: Variable domains, not shown: another chain or arm of the molecule; small tags and cut ends) Fc: VPEPLGGPSVLIFPPKPKDILRITRTPEVTCVVLDLGREDPEVQISWFVDGKEVHTAKTQSREQQFNGTYRVVSVLPIEHQDWLTGKEFKCRVNHIDLPSPIERTISKARGRAHKPSVYVLPPSPKELSSSDTVSITCLIKDFYPPDIDVEWQSNGQQEPERKHRMTPPQLDEDGSYFLYSKLSVDKSRWQQGDPFTCHVMHETLQNHYTDLSLSHSPGK
